For experiment [1], the target named is gp120 of the HIV-1 isolate ADA (HIV-1). The experiment can be described thus: scFv precipitated with Protein L-Sepharose, radiolabeled ADA gp120 with and without soluble CD4, densitometry.
In experiment [2] the target is envelope glycoprotein of the R5-isolate ADA on pseudotyped HIV-1 (HIV-1). The experiment can be described thus: cell-based or functional assay.

Take 17b scFv: in experiment [1], the enhancement of binding to gp120 by soluble CD4 was greater than 2 fold. In the case of 47e scFv (wt), the enhancement of binding to gp120 by soluble CD4 in experiment [1] is greater than 2 fold.

As to 412d scFv (wt), in experiment [1], the enhancement of binding to gp120 by soluble CD4 is greater than 2 fold. Regarding CD4 binding site antibody F105, the EC50 of neutralization of ADA virus in experiment [2] is 0.2 to 0.5 µg/mL. As to E51 scFv, in experiment [1], the increase of binding to gp120 in the presence of CD4 was 40%.

In experiment [2], antibody 17b yielded an EC50 of neutralization of ADA virus greater than 2 µg/mL.

antibody 412d showed an EC50 of neutralization of ADA virus in experiment [2] of 0.2 to 0.5 µg/mL. Turning to antibody E51, the EC50 of neutralization of ADA virus in experiment [2] was less than 0.05 µg/mL.
